# Test results: publication doi:10.1101/2024.02.29.582761
# Columns and labels:
# Test in all cases: BLI
# [1] = target: His-SUMO-GroTAC1 (E. coli)
# [2] = target: His-SUMO-XB-GGS peptide (E. coli)
# His-SUMO-GGS-SBP peptide = target: His-SUMO-GGS-SBP peptide
Substance,Kd [1] [nM],Kd [2] [nM],Kd (His-SUMO-GGS-SBP peptide) [nM]
ClpX (from UniProt P0A6H1 1-424) (enzyme),70,65,
GroEL (from UniProt P0A6F5 1-548) (natural protein),154,,94
